# Patent publication US20240174716A1 (VACINO BIOTECH, published 2024)
# Biological target: T1, TfR protein (Acro Biosystems. Cat. No. CD1-H5243) (UniProt P02786 89-760)
# T1 construct: Bought recombinant protein; also called TfR1; transferrin receptor
# Assay: FOPPR (fiber optic particle plasmon resonance); peptide coupled to chip, TfR protein loaded at 0.5-1000 ng/mL
# Protocol: In this Example, the binding affinity of the transporter peptides disclosed herein to TfR was analyzed by fiber optic particle plasmon resonance (FOPPR). In this Example, different amino acid sites of the transporter peptide were further substituted with different amino acids of the same property to anaylze binding affinity of these variant peptides to the transferrin receptor.
# To determine the affinity of the targeting peptide to TfR1, a fiber optic particle plasmon resonance (FOPPR) affinity study was performed according to the manufacturer's instruction. Briefly, 80 μL of tested peptide (10 μg/ml) dissolved in PBS buffer (pH 7.4) was pipetted into the EDC/NHS preactivated surface of standard chip NanoAu-MM (Taipei, Taiwan) for peptide conjugating to the carboxyl group of the surface sensor chip. TfR protein (Acro Biosystems. Cat. No. CD1-H5243, Newark, DE, USA) was loading to the chip with at the concentrations of 0.5 ng/mL, 1 ng/mL, 10 ng/mL, 100 ng/mL, 500 ng/mL, and 1000 ng/mL, respectively. Based on the light intensity change, the molecules interaction parameters of KD were calculated by the FOPPR system D200 (Id M3) (Taipei, Taiwan).
# T1 sequence (P02786 89-760 limits assumed): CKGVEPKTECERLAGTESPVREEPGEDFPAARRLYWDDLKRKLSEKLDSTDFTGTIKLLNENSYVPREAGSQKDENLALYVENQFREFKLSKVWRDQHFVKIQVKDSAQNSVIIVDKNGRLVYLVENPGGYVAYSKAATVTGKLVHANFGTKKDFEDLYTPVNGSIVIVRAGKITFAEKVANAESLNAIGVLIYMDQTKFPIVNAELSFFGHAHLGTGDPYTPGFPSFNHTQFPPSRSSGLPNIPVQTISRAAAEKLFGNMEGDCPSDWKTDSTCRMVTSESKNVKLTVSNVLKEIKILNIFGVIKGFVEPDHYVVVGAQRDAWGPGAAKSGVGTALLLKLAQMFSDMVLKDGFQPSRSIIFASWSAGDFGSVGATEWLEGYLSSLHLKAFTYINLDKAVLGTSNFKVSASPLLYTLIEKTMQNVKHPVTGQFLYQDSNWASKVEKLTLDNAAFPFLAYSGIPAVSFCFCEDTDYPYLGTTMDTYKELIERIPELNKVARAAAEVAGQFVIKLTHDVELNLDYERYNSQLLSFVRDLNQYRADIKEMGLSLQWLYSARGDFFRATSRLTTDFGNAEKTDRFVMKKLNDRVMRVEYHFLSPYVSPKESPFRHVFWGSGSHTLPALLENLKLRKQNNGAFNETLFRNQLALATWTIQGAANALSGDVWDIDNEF
row,Binder,Kd [nM]
1,DISVLMKEYD (10-mer; also called transporter peptide) [PT-001],71
2,DISVLMKESD (10-mer; also called transporter peptide) [PT-056],4.1
3,DISVLMKEYQ (10-mer; also called transporter peptide) [PT-034],39.3
4,DISVLMKEFD (10-mer; also called transporter peptide) [PT-055],6.08
5,DISVLMKETD (10-mer; also called transporter peptide) [PT-057],1.92
6,DISELMKEYD (10-mer; also called transporter peptide) [PT-063],16.6
7,DILVLMKEYD (10-mer; also called transporter peptide) [PT-011],3.23
8,DISVLMKDYD (10-mer; also called transporter peptide) [PT-054],59.3
9,DISVLQKEYD (10-mer; also called transporter peptide) [PT-030],10.3
10,DIPVLMKEYD (10-mer; also called transporter peptide) [PT-014],52.3
11,DISVLMKEYE (10-mer; also called transporter peptide) [PT-033],261
12,DISVLSKEYD (10-mer; also called transporter peptide) [PT-051],70
13,DISVLDKEYD (10-mer; also called transporter peptide) [PT-025],0.43
14,NISVLMKEYD (10-mer; also called transporter peptide) [PT-062],1.3
15,DISVLEKEYD (10-mer; also called transporter peptide) [PT-029],3.62
16,DISLLMKEYD (10-mer; also called transporter peptide) [PT-022],36.6
17,DISVLLKEYD (10-mer; also called transporter peptide) [PT-064],10.5
18,DISVLMKEYN (10-mer; also called transporter peptide) [PT-031],4.45
19,DISVLCKEYD (10-mer; also called transporter peptide) [PT-027],0.27
20,DISVLKKEYD (10-mer; also called transporter peptide) [PT-028],5.14
21,DISVLNKEYD (10-mer; also called transporter peptide) [PT-026],26
22,DIDVLMKEYD (10-mer; also called transporter peptide) [PT-004],18.5
23,DISVVMKEYD (10-mer; also called transporter peptide) [PT-024],8.22
24,DIHVLMKEYD (10-mer; also called transporter peptide) [PT-008],8.07
25,DIHVLDKEYD (10-mer; also called transporter peptide) [PT-067],0.45
26,DISVLMKHYD (10-mer; also called transporter peptide) [PT-065],0.57
27,DITVLMKEYD (10-mer; also called transporter peptide) [PT-017],4.77
28,DISVIMKEYD (10-mer; also called transporter peptide) [PT-023],22.8
29,DITVLCKEYN (10-mer; also called transporter peptide) [PT-066],86.1
